Data: PMC3056017

Target: truncated recombinant mOGT (C-654) (human)

B1: Peptide (…) (peptide)
peptide: YSDSPSTST
With B1 the km for the peptide in the coupled enzyme assay of OGT transglycosylation (double-reciprocal plot; peptide 0.05 to 0.5 mM, UDP-GlcNAc held at 0.5 mM) was 0.16 mM.
